In the supplement of paper PMC10724198:
± gives the standard deviation of the averaged measurements.

system: Saccharomyces cerevisiae; assay: protein stability index of tFT-peptide fusion (C-terminal peptide) (PSI (0-1 scale)); higher = more stable (slower turnover); conditions: genetic background: wild type; temperature: 30 C
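Note: PSI is a weighted mean of sequencing reads over stability bins, variants kept only with over 10 reads, mCherry proximal and sfGFP distal, peptide attached via GGGS linker.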

| Sequence | protein stability index |
| --- | --- |
| GFSGSPWSNPFV | 0.8663 ± 0.0025 |
| LYQRCVCSFREK | 0.639 ± 0.016 |
| ASGGGPLGNSSR | 0.684 ± 0.043 |
| GRPFCLGVKMFL | 0.673 ± 0.035 |
| YPDNRGRGPRQP | 0.686 ± 0.082 |
| SRKKSKQYRQEK | 0.716 ± 0.039 |
| EKERKIKEREVT | 0.631 ± 0.018 |
| DGGGGGRAPRVR | 0.726 ± 0.1 |
| LLALSPLSSYAL | 0.711 ± 0.084 |
| GRDFASNFRQLG | 0.718 ± 0.026 |
| GVVGKDEGRSRA | 0.797 ± 0.038 |
| LADRTREFSNPA | 0.6466 ± 0.0054 |
| RPSPSAQFITCA | 0.646 ± 0.013 |
| QLSTSGLTTTAW | 0.707 ± 0.029 |
| CNQRRWRGRKGY | 0.67 ± 0.01 |
| GQVACLVSREYT | 0.69 ± 0.018 |
| KEWGGEGRDAWG | 0.6834 ± 0.0061 |
| PQYLPLLPSPSP | 0.632 ± 0.048 |
| FFAPSRLHHLSL | 0.772 ± 0.071 |
| RSRLPTPRLYPP | 0.708 ± 0.01 |
| LHPCATITELTS | 0.652 ± 0.026 |
| SSPLPPSLPSSR | 0.671 ± 0.025 |
| PHPATLPPPAPT | 0.699 ± 0.032 |
| HRLTGMRKRGRG | 0.658 ± 0.066 |
| SGLFFRWCRLSW | 0.638 ± 0.031 |
| LPLPHPQPTPYP | 0.756 ± 0.046 |

| Sequence | protein stability index |
| --- | --- |
| PPPPAVPPSPPP | 0.645 ± 0.012 |
| GGGSGVLEWGSV | 0.714 ± 0.12 |
| SHSTNNHKLTPR | 0.677 ± 0.082 |
| VYGGFGGGRWVI | 0.702 ± 0.087 |
| LVNLESRAGAIR | 0.713 ± 0.043 |
| FERRGSSFWGGC | 0.7 ± 0.032 |
| RGGCLPTCPQET | 0.652 ± 0.026 |
| RRDRRVGEGEGV | 0.699 ± 0.059 |
| EWLRYNKDKRKI | 0.774 ± 0.14 |
| PPPTLPPPPPAL | 0.711 ± 0.033 |
| FSTIWSLPLSPR | 0.716 ± 0.038 |
| HPETIGHNVRPR | 0.708 ± 0.048 |
| PPQHRNPAVRRH | 0.667 ± 0.023 |
| VAIGGGLGGDRC | 0.719 ± 0.032 |
| KVDGTIDSRVMS | 0.683 ± 0.089 |
| HVAYAQSRLFYA | 0.638 ± 0.094 |
| PSPPHLCPSPFA | 0.7518 ± 0.0015 |
| SARLTPDLPAPS | 0.642 ± 0.017 |
| PLPAPPLPPRSP | 0.703 ± 0.012 |
| AHFSRRSSSSVS | 0.7 ± 0.02 |
| FCLPVFCVPSHF | 0.634 ± 0.11 |
| WLGGIFRNKVFT | 0.621 ± 0.013 |
| DMHTPATDSPLP | 0.783 ± 0.016 |
| EKNKRMEVKAKR | 0.67 ± 0.0096 |
| VVHSRSTPAHPH | 0.679 ± 0.12 |
| WAGGGFVVGCVG | 0.629 ± 0.062 |

| Sequence | protein stability index |
| --- | --- |
| LRYGSDQMERFI | 0.717 ± 0.1 |
| RDPDTWKLFSLT | 0.687 ± 0.043 |
| NAVCCGKWRGGS | 0.714 ± 0.11 |
| PPLPGHPCLWPT | 0.649 ± 0.057 |
| VQASFLPGGSVR | 0.7062 ± 0.0039 |
| PLPLHLATPHLF | 0.694 ± 0.05 |
| PPPPYPSTRHSP | 0.6564 ± 0.0021 |
| GTHGVGGNIDLT | 0.648 ± 0.013 |
| PPPSHLHLPSPA | 0.53 ± 0.0095 |
| LWTASISVAEVR | 0.633 ± 0.012 |
| PPPAPFSPLPPP | 0.7184 ± 0.002 |
| DCNQLRGRAFRL | 0.719 ± 0.034 |
| RRSTIHSRLFGA | 0.6786 ± 0.0041 |
| ASAGTVYLTLLP | 0.697 ± 0.072 |
| AKYPAQASTEPL | 0.702 ± 0.028 |
| PCPLPSPHPPPR | 0.717 ± 0.046 |
| ALSRLLPPRPPV | 0.608 ± 0.027 |
| SKERLKSEKMKK | 0.745 ± 0.059 |
| TQKKQKRKDQQR | 0.654 ± 0.01 |
| VLVGRAGIVFLG | 0.573 ± 0.04 |
| WNSISGRTVVYM | 0.709 ± 0.092 |
| LLSCFGFLRVGA | 0.6076 ± 0.0049 |
| LPPLAPSSPPRP | 0.696 ± 0.033 |
| DKGIHKREKFFT | 0.734 ± 0.0054 |
| RSSNRRAIRSHD | 0.7106 ± 0.0019 |
| PPPPPPPPALSS | 0.7163 ± 0.0034 |

| Sequence | protein stability index |
| --- | --- |
| RKIRRLIVKKGI | 0.67 ± 0.022 |
| RPLPPLPPPSCP | 0.71 ± 0.046 |
| NVLSGIDKRLTI | 0.71 ± 0.053 |
| MGSGRGVITTKG | 0.704 ± 0.0077 |
| CFSMGKRGLRGR | 0.686 ± 0.026 |
| PPPPTPRYRAPL | 0.671 ± 0.057 |
| VAPPSSFPPPRL | 0.726 ± 0.056 |
| GSGDRSGCGWRG | 0.678 ± 0.025 |
| RVLVRLFGRGKA | 0.688 ± 0.025 |
| PASFAYRTLNMV | 0.661 ± 0.082 |
| GRDPARPRPLAP | 0.677 ± 0.046 |
| GCGRGGIAGGPR | 0.702 ± 0.0014 |
| GMVTCTSPRCHK | 0.694 ± 0.016 |
| SCAPRSPCTPPP | 0.718 ± 0.015 |
| LLPLGSLSLSPP | 0.7257 ± 0.0024 |
| WSREGGVVESVG | 0.709 ± 0.019 |
| TLRTPGFSSSLH | 0.721 ± 0.025 |
| TCTIQSEDFHEI | 0.707 ± 0.063 |
| KSVGKGIIQLRL | 0.726 ± 0.042 |
| LFRPSFFFFVCQ | 0.548 ± 0.0027 |
| RLGPSAPLFVHL | 0.542 ± 0.042 |
| IKMRKICLIGSM | 0.603 ± 0.052 |
| RLEDGCGVGAGR | 0.645 ± 0.015 |
| KSHKKKKKNKNF | 0.539 ± 0.0035 |
| SPVRSQPALLVV | 0.565 ± 0.0096 |
| TKSPYLTVNETA | 0.686 ± 0.055 |

| Sequence | protein stability index |
| --- | --- |
| PGLTAVVYRPAD | 0.724 ± 0.04 |
| RVRSKNIKIRWK | 0.798 ± 0.029 |
| SLLSTPPPLASP | 0.669 ± 0.039 |
| QVILQHSLGLLD | 0.707 ± 0.014 |
| QSPSALAEGPDD | 0.641 ± 0.099 |
| NKRKIKKKKKRG | 0.651 ± 0.088 |
| GWSFDLVSAQWG | 0.817 ± 0.02 |
| WVCLGWGVPRSG | 0.835 ± 0.031 |
| PPFLSPLRPPSL | 0.781 ± 0.09 |
| PPYPPPRPKPPR | 0.699 ± 0.012 |
| DFCPCPRWFLRR | 0.715 ± 0.086 |
| LRGTEMMSTSVV | 0.656 ± 0.085 |
| LPSLLIHLVSQT | 0.668 ± 0.02 |
| IRGAARRRTQGY | 0.731 ± 0.038 |
| VYGWSPLSEARN | 0.738 ± 0.025 |
| NESGWHNLLMSV | 0.708 ± 0.0097 |
| NETVIATLGKGA | 0.657 ± 0.037 |
| SSNSRPTGSGGS | 0.694 ± 0.1 |
| PPSIEAAQPPYF | 0.681 ± 0.015 |
| YGLSVSSLRLWP | 0.6853 ± 0.0051 |
| YVVMARWSRWYV | 0.522 ± 0.015 |
| APPPRPLKLFPP | 0.611 ± 0.028 |
| SAPPPAPPPPPR | 0.702 ± 0.027 |
| SIWLLSGGQCFL | 0.684 ± 0.027 |
| PPRPPRPPPRTP | 0.694 ± 0.022 |
| QGREREAGAEVM | 0.699 ± 0.03 |

| Sequence | protein stability index |
| --- | --- |
| PLHLYPHPPTHS | 0.698 ± 0.078 |
| QYLKTKKEGKEF | 0.698 ± 0.024 |
| PPHLFLPSSMPF | 0.693 ± 0.015 |
| KKTRRGSNKKEG | 0.681 ± 0.025 |
| VCGYLSIVIWLR | 0.423 ± 0.24 |
| FLAPPPDVGQLV | 0.692 ± 0.038 |
| GVWRCGVVGLSL | 0.665 ± 0.038 |
| PSRLAPPSPSIP | 0.694 ± 0.051 |
| NRAIVAYFPGMF | 0.666 ± 0.042 |
| PSPRPFPPPLPP | 0.6262 ± 0.0022 |
| PPHRRTPQRRCP | 0.701 ± 0.013 |
| RRHRPKNEVPLC | 0.705 ± 0.029 |
| PATTVAKGSHQF | 0.717 ± 0.026 |
| EQWSAHSMLSGR | 0.705 ± 0.026 |
| SPHPPPPPSPPP | 0.723 ± 0.059 |
| PAWGEQYYGNVR | 0.69 ± 0.057 |
| TLFTRRSIMKGN | 0.62 ± 0.068 |
| GGGGGGVRWASG | 0.707 ± 0.051 |
| SALRALRPGSLP | 0.806 ± 0.11 |
| LPPPSPPPIPSP | 0.688 ± 0.06 |
| LASPDPSPLVVP | 0.678 ± 0.02 |
| SPALPPPAPRLL | 0.719 ± 0.061 |
| GGGAGGGGVVVR | 0.643 ± 0.016 |
| QRWKEGRGHSRQ | 0.686 ± 0.017 |
| PSKRKRATPSKR | 0.647 ± 0.021 |
| WLSLPLAHLFSP | 0.681 ± 0.047 |

| Sequence | protein stability index |
| --- | --- |
| TRMPTRRNEQIY | 0.683 ± 0.047 |
| QTGPPDPPLSPP | 0.643 ± 0.014 |
| KKKKKIEQRKQE | 0.67 ± 0.017 |
| SWTEPISNTVLP | 0.77 ± 0.034 |
| LPPPLPLPSRHY | 0.671 ± 0.06 |
| ALRGESWKSKQG | 0.664 ± 0.13 |
| KELGGSSEITEI | 0.658 ± 0.072 |
| VCNLSRRGLCHG | 0.584 ± 0.11 |
| KRRNKEHNKIRD | 0.652 ± 0.052 |
| LRFGEGILLDWG | 0.723 ± 0.043 |
| HRLMDTNFSRSP | 0.743 ± 0.061 |
| RRVCLIASLWGC | 0.625 ± 0.023 |
| YFDVFLRLAFSR | 0.655 ± 0.04 |
| RCEGRRIEQSGK | 0.7037 ± 0.0049 |
| EGGCCRMVGVVK | 0.633 ± 0.0024 |
| GFSKNCSCVVLC | 0.559 ± 0.029 |
| CIRGFQVRGYFK | 0.791 ± 0.19 |
| PPPPSRPPSPGP | 0.6691 ± 0.00067 |
| DIRRWQWWFMVR | 0.613 ± 0.082 |
| VGEAGTRASVPV | 0.665 ± 0.12 |
| GARGGSGGGQPG | 0.661 ± 0.019 |
| WGRGEWKRGQEA | 0.743 ± 0.053 |
| CIVDFLGISSGI | 0.659 ± 0.057 |
| CILPFFFFVSPD | 0.652 ± 0.084 |
| KRNKITKKDRIN | 0.613 ± 0.031 |
| VSLISCGGVYAG | 0.688 ± 0.015 |

| Sequence | protein stability index |
| --- | --- |
| PPSHPLTIRPPL | 0.663 ± 0.014 |
| ALTWVGEGLRGS | 0.699 ± 0.027 |
| ICGLWVCLGHGF | 0.595 ± 0.067 |
| PPFRPRPPPPSA | 0.812 ± 0.17 |
| PGTGAASGTGGA | 0.689 ± 0.012 |
| DAIHSPALLASP | 0.715 ± 0.092 |
| LGLFGSVVVCGQ | 0.65 ± 0.015 |
| ERKRPLAKKTKN | 0.643 ± 0.055 |
| RGGGGGGDCVGA | 0.727 ± 0.018 |
| VPHLPATPPAPP | 0.646 ± 0.037 |
| FPPHPPPPPPLN | 0.743 ± 0.041 |
| VGDGGGEVMGEA | 0.677 ± 0.053 |
| RGGGRDGQTRGV | 0.6165 ± 0.0045 |
| PKNNHTKKKTGQ | 0.677 ± 0.0093 |
| TVFFVLGTESRV | 0.664 ± 0.032 |
| SGTVRRQCGNPD | 0.69752 ± 0.00027 |
| SGVGLAETAGDD | 0.68 ± 0.027 |
| PEVRTNKQHQER | 0.746 ± 0.055 |
| VWGVRVVCGFTV | 0.533 ± 0.0038 |
| SVKHTFAHSVNS | 0.6442 ± 0.0018 |
